From article PMC4132713
Values joined by “and” are separate entries in the source; they are usually repeats but may differ in a detail not shown here. Identical values can stand only once.

Assays:
Settings in all cases: SPR: TBS (50 mM Tris-HCl, 150 mM NaCl, pH 6.8) or TBS-KCl (150 mM KCl instead of NaCl), 1-32 nM DARPin on 300-500 RU biotinylated DNA; ELISA: 100 nM …
[1] = test system: DARPin 2G10 (synthetic construct); assay: SPR
[2] = test system: DARPin 1G2 (synthetic construct); assay: SPR
[3] = test system: DARPin 2E4 (synthetic construct); assay: SPR
[4] = test system: DARPin 1C11 (synthetic construct); assay: SPR
[5] = test system: DARPin 2G10 (synthetic construct); assay: SPR; remark: listed apart in the source
[6] = test system: DARPin 1G2 (synthetic construct); assay: SPR; remark: listed apart in the source
[7] = test system: DARPin 2E4 (synthetic construct); assay: SPR; remark: listed apart in the source
[8] = test system: DARPin 1C11 (synthetic construct); assay: SPR; remark: listed apart in the source
[9] = test system: DARPin 1G11 (synthetic construct); assay: SPR
[10] = test system: DARPin 1C7 (synthetic construct); assay: SPR
[11] = test system: DARPin 1G2 (synthetic construct); assay: competition SPR
[12] = test system: DARPin 2E4 (synthetic construct); assay: competition SPR
[13] = test system: DARPin 1C11 (synthetic construct); assay: competition SPR
[14] = test system: DARPin 1H4 (synthetic construct); assay: competition SPR
[15] = test system: DARPin 2D10 (synthetic construct); assay: competition SPR
[16] = test system: DARPin 2C10 (synthetic construct); assay: competition SPR
[17] = test system: DARPin 2G7 (synthetic construct); assay: competition SPR
[18] = test system: DARPin 1C7 (synthetic construct); assay: competition SPR
[19] = test system: DARPin 1G2 (synthetic construct); assay: competition SPR; remark: listed apart in the source
[20] = test system: DARPin 1C11 (synthetic construct); assay: competition SPR; remark: listed apart in the source
[21] = test system: DARPin 1H4 (synthetic construct); assay: competition SPR; remark: listed apart in the source
[22] = test system: DARPin 2D10 (synthetic construct); assay: competition SPR; remark: listed apart in the source
[23] = test system: DARPin 2C10 (synthetic construct); assay: competition SPR; remark: listed apart in the source
[24] = test system: DARPin 2G7 (synthetic construct); assay: competition SPR; remark: listed apart in the source
[25] = test system: DARPin 1C6 (synthetic construct); assay: competition SPR
[26] = test system: DARPin 1C7 (synthetic construct); assay: competition SPR; remark: listed apart in the source
[27] = test system: DARPin 1C7 (synthetic construct); assay: SPR; remark: listed apart in the source
[28] = test system: DARPin 1H4 (synthetic construct); assay: SPR
[29] = test system: DARPin 2D10 (synthetic construct); assay: SPR
[30] = test system: DARPin 2C10 (synthetic construct); assay: SPR
[31] = test system: DARPin 2G7 (synthetic construct); assay: SPR
[32] = test system: DARPin 1H4 (synthetic construct); assay: SPR; remark: listed apart in the source
[33] = test system: DARPin 2D10 (synthetic construct); assay: SPR; remark: listed apart in the source
[34] = test system: DARPin 2C10 (synthetic construct); assay: SPR; remark: listed apart in the source
[35] = test system: DARPin 2G7 (synthetic construct); assay: SPR; remark: listed apart in the source
[36] = test system: DARPin 1C6 (synthetic construct); assay: SPR

For TGAGGGTGGGTAGGGTGGGTAA [c-MYC], the Kd [1] was 0.1 µM and 0.015 µM, the Kd [2] was 0.016 µM and 0.014 µM and the Kd [3] was 0.028 µM and 0.019 µM. For the same sequence, the Kd [4] was 0.017 µM and 0.0068 µM, the Kd [5] was 0.09 µM and the Kd [6] was 0.043 µM. It also gave a Kd [7] of 0.064 µM, a Kd [8] of 0.049 µM and a Kd [9] of 0.019 µM. The Kd [10] was 0.081 µM.
In the case of “TTAGGGTTAGGGTTAGGGTTAGGG [tel (non-biotinylated)]”, the Kd [11] is reported as 0.0036 µM, the Kd [12] is reported as 0.12 µM and the Kd [13] is reported as 0.072 µM. For the same sequence, the Kd [14] was 0.019 µM, the Kd [15] was 0.16 µM and the Kd [16] was 0.16 µM. For the same sequence, the Kd [17] was 0.008 µM, the Kd [18] was 0.16 µM and the Kd [19] was 0.069 µM. For the same sequence, the Kd [20] was 0.1 µM, the Kd [21] was 0.081 µM and the Kd [22] was 0.11 µM. For the same sequence, the Kd [23] was 0.067 µM, the Kd [24] was 0.032 µM and the Kd [25] was 0.056 µM. It also gave a Kd [26] of 0.11 µM.
In the case of CAGGGGTGTGGGGACAGGGGTGTGGGGAC [ILPR], the Kd [1] is reported as 0.022 µM and 0.019 µM, the Kd [2] is reported as 0.0094 µM and 0.0064 µM and the Kd [4] is reported as 0.012 µM and 0.004 µM. For the same sequence, the Kd [27] was 0.021 µM and 0.014 µM, the Kd [6] was 0.027 µM and the Kd [8] was 0.043 µM. For the same sequence, the Kd [9] was 0.044 µM and the Kd [10] was 0.033 µM.
In the case of “TTAGGGTTAGGGTTAGGGTTAGGG [tel (biotinylated)]”, the Kd [1] is reported as 0.065 µM and 0.015 µM, the Kd [2] is reported as 0.0079 µM and 0.0033 µM and the Kd [3] is reported as 0.0046 µM and 0.042 µM. For the same sequence, the Kd [4] was 0.011 µM and 0.0089 µM, the Kd [28] was 0.015 µM and 0.014 µM and the Kd [29] was 0.018 µM and 0.022 µM. For the same sequence, the Kd [30] was 0.02 µM and 0.035 µM, the Kd [31] was 0.01 µM and 0.0055 µM and the Kd [27] was 0.015 µM and 0.0033 µM. The Kd [6] was 0.053 µM, the Kd [8] was 0.053 µM and the Kd [32] was 0.062 µM. The Kd [33] was 0.034 µM, the Kd [34] was 0.048 µM and the Kd [9] was 0.072 µM. The Kd [35] was 0.02 µM, the Kd [36] was 0.016 µM and the Kd [10] was 0.037 µM.
